US20190359719A1

Molecular target: c-Met (UniProt P08581)
Test: Biacore SPR

Chain of c-Met (P08581 25-932): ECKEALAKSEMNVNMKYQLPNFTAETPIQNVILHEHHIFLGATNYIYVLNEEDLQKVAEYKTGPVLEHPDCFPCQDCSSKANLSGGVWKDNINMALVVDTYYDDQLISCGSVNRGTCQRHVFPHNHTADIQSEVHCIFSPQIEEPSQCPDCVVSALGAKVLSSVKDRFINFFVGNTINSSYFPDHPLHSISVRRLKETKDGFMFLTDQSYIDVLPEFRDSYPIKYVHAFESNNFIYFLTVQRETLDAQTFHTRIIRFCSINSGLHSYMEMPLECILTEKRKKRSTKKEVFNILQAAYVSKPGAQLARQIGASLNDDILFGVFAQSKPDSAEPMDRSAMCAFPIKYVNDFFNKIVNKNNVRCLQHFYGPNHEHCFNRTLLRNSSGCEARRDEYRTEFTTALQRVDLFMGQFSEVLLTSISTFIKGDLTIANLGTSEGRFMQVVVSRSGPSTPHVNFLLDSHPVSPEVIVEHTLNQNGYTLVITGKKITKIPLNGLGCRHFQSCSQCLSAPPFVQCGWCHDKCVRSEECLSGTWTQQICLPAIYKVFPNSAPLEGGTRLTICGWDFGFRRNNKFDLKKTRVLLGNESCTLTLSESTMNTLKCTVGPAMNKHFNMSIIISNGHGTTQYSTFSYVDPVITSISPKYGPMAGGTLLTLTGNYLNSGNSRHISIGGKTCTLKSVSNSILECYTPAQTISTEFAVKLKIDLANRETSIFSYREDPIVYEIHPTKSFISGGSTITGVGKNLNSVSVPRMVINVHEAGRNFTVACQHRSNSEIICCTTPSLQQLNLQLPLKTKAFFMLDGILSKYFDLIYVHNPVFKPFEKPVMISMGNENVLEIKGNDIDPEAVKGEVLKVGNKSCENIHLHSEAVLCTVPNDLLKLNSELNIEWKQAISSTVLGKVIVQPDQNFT

- Ka: 5.89e+09 M⁻¹
- Kd: 0.17 nM
Substance: 5D5
